Measurements published in paper doi:10.1101/608273.

Molecular target: dNxf2^UBA (recombinant) (Drosophila) (UniProt Q9VV73)
Test: ITC

Sequence of UniProt Q9VV73 (Q9VV73 whole entry): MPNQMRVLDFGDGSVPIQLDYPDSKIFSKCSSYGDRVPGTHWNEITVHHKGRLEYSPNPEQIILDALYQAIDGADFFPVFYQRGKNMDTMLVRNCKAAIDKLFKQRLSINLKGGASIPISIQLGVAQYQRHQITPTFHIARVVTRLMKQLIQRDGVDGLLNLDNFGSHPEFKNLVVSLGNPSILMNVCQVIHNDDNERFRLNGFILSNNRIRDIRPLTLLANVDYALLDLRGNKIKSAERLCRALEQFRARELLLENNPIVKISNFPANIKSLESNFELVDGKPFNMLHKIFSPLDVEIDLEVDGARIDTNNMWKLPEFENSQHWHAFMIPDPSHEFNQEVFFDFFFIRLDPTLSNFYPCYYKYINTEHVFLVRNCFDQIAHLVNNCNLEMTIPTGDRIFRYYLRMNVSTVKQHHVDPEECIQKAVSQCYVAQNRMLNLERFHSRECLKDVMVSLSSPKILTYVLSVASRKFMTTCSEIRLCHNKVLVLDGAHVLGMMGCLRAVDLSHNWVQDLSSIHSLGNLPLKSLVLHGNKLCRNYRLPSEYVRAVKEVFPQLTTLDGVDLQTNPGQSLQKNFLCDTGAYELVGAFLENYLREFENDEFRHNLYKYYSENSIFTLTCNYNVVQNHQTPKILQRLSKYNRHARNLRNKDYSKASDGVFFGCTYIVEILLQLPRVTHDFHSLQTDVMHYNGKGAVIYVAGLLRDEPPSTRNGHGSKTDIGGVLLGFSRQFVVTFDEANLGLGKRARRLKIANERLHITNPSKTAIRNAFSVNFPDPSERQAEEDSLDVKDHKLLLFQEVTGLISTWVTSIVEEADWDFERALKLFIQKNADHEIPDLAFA

Purified Panx^NIR (from UniProt Q9W2H9 315-343) (domain or fragment)
Kd: 3.2 µM
